# Experimental data published in IntAct's records for PubMed 21203436.
# B1: Protein MKS1 (Arabidopsis thaliana (Mouse-ear cress)), Q8LGD5 (parent)
# chain: MDPSEYFAGGNPSDQQNQKRQLQICGPRPSPLSVHKDSHKIKKPPKHPAPPPNRDQPPPYIPREPVVIYAVSPKVVHATASEFMNVVQRLTGISSGVFLESGGGGDVSPAARLASTENASPRGGKEPAARDETVEINTAMEEAAEFGGYAPGILSPSPALLPTASTGIFSPMYHQGGMFSPAIPLGLFSPAGFMSPFRSPGFTSLVASPTFADFFSHIWDQD
# partner: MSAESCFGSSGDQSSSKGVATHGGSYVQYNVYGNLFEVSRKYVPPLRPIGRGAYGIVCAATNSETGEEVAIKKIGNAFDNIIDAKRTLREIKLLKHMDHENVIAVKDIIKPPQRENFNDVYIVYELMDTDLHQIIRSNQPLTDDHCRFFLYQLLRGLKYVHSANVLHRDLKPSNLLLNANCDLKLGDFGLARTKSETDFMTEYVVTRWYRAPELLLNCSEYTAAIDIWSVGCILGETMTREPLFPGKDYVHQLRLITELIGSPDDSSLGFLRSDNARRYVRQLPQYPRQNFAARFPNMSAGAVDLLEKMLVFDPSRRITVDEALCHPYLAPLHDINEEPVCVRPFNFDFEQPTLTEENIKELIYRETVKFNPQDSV
# Variants of: B1
# Details: with mpk4_arath MPK4, Q39024
row,Variant,effect of a mutation on the interaction
1,MDPSEYFAGGNPSDQQNQKRQLQICGPRASPLSVHKDSHKIKKPPKHPAPPPNRDQPPPYIPREPVVIYAVSPKVVHATASEFMNVVQRLTGISSGVFLESGGGGDVSPAARLASTENASPRGGKEPAARDETVEINTAMEEAAEFGGYAPGILSPSPALLPTASTGIFSPMYHQGGMFSPAIPLGLFSPAGFMSPFRSPGFTSLVASPTFADFFSHIWDQD [P29A],disrupting interaction
2,MDPSEYFAGGNPSDQQNQARQLQICGPRPSPLSVHKDSHKIKKPPKHPAPPPNRDQPPPYIPREPVVIYAVSPKVVHATASEFMNVVQRLTGISSGVFLESGGGGDVSPAARLASTENASPRGGKEPAARDETVEINTAMEEAAEFGGYAPGILSPSPALLPTASTGIFSPMYHQGGMFSPAIPLGLFSPAGFMSPFRSPGFTSLVASPTFADFFSHIWDQD [K19A],disrupting interaction
3,MDPSEYFAGGNPSDQQNQKRQLQICGPRPSPASVHKDSHKIKKPPKHPAPPPNRDQPPPYIPREPVVIYAVSPKVVHATASEFMNVVQRLTGISSGVFLESGGGGDVSPAARLASTENASPRGGKEPAARDETVEINTAMEEAAEFGGYAPGILSPSPALLPTASTGIFSPMYHQGGMFSPAIPLGLFSPAGFMSPFRSPGFTSLVASPTFADFFSHIWDQD [L32A],disrupting interaction
4,MDPSEYFAGGNPSDQQNQKRQLQICGPAPSPLSVHKDSHKIKKPPKHPAPPPNRDQPPPYIPREPVVIYAVSPKVVHATASEFMNVVQRLTGISSGVFLESGGGGDVSPAARLASTENASPRGGKEPAARDETVEINTAMEEAAEFGGYAPGILSPSPALLPTASTGIFSPMYHQGGMFSPAIPLGLFSPAGFMSPFRSPGFTSLVASPTFADFFSHIWDQD [R28A],disrupting interaction

# Further lines, results first:
row,effect of a mutation on the interaction,Variant
1,disrupting interaction,MDPSEYFAGGNPSDQQNQKRQLQICGPRPSPLSVHKDSHAIKKPPKHPAPPPNRDQPPPYIPREPVVIYAVSPKVVHATASEFMNVVQRLTGISSGVFLESGGGGDVSPAARLASTENASPRGGKEPAARDETVEINTAMEEAAEFGGYAPGILSPSPALLPTASTGIFSPMYHQGGMFSPAIPLGLFSPAGFMSPFRSPGFTSLVASPTFADFFSHIWDQD [K40A]
2,disrupting interaction,MDPSEYFAGGNPSDQQNQKRQLQICGPRPSPLSVHKDAHKIKKPPKHPAPPPNRDQPPPYIPREPVVIYAVSPKVVHATASEFMNVVQRLTGISSGVFLESGGGGDVSPAARLASTENASPRGGKEPAARDETVEINTAMEEAAEFGGYAPGILSPSPALLPTASTGIFSPMYHQGGMFSPAIPLGLFSPAGFMSPFRSPGFTSLVASPTFADFFSHIWDQD [S38A]
